Results on two molecules are retold here after patent US20100008917A1 (published 2010).

Test in all cases: cell-based or functional assay
In assay [1] the target is T1, human IL-27 (huIL-27), as used in Example 5 (human, UniProt Q14213 21-229; Q8NEV9 29-243, limits assumed).
T1 sequence (looked up) 1: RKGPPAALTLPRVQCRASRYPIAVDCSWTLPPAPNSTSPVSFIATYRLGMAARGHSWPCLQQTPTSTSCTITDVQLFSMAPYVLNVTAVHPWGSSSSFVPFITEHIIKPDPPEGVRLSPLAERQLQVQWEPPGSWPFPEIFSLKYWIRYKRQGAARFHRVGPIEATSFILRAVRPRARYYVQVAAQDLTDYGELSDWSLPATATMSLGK
T1 sequence (looked up) 2: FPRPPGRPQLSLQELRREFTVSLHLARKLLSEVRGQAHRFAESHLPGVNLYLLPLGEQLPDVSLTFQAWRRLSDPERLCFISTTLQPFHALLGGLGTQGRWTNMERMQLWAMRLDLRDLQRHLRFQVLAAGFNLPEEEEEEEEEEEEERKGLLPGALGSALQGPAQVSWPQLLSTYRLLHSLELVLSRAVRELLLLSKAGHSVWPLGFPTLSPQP

Assay [2] has as its target T2, mouse IL-27 (muIL-27), as used in Example 5 (mouse, UniProt O35228 19-228; Q8K3I6 29-234, limits assumed).
T2 sequence (looked up) 1: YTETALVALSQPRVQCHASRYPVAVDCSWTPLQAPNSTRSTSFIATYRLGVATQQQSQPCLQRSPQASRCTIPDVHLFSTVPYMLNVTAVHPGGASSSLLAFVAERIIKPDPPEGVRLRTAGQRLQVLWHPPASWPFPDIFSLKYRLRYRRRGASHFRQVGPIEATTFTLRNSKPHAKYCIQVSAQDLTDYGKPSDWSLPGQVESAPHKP
T2 sequence (looked up) 2: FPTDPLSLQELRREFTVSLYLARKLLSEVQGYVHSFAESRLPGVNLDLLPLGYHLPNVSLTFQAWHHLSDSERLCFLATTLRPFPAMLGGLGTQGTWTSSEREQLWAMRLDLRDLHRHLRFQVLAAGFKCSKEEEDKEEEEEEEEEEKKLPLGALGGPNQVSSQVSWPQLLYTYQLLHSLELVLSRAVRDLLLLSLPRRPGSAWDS

Assay [3] addresses T1, human IL-27 (huIL-27), as used in …. This is another data set of the same source.
Assay [4] deals with T2, mouse IL-27 (muIL-27), as used in …. The source holds these as a separate data set.

B1: human IL27RA-Fc5 fusion protein (Fc fusion)
chain: QGSAGPLQCYGVGPLGDLNCSWEPLGDLGAPSELHLQSQKYRSNKTQTVAVAAGRSWVAIPREQLTMSDKLLVWGTKAGQPLWPPVFVNLETQMKPNAPRLGPDVDFSEDDPLEATVHWAPPTWPSHKVLICQFHYRRCQEAAWTLLEPELKTIPLTPVEIQDLELATGYKVYGRCRMEKEEDLWGEWSPILSFQTPPSAPKDVWVSGNLCGTPGGEEPLLLWKAPGPCVQVSYKVWFWVGGRELSPEGITCCCSLIPSGAEWARVSAVNATSWEPLTNLSLVCLDSASAPRSVAVSSIAGSTELLVTWQPGPGEPLEHVVDWARDGDPLEKLNWVRLPPGNLSALLPGNFTVGVPYRITVTAVSASGLASASSVWGFREELAPLVGPTLWRLQDAPPGTPAIAWGEVPRHQLRGHLTHYTLCAQSGTSPSVCMNVSGNTQSVTLPDLPWGPCELWVTASTIAGQGPPGPILRLHLPDNTEPKSSDKTHTCPPCPAPEAEGAPSVFLFPPKPKDTLMISRTPEVTCVVVDVSHEDPEVKFNWYVDGVEVHNAKTKPREEQYNSTYRVVSVLTVLHQDWLNGKEYKCKVSNKALPSSIEKTISKAKGQPREPQVYTLPPSRDELTKNQVSLTCLVKGFYPSDIAVEWESNGQPENNYKTTPPVLDSDGSFFLYSKLTVDKSRWQQGNVFSCSVMHEALHNHYTQKSLSLSPGK
Consider B1, for which the “IC50 (nM), phospho-STAT3 in total human PBMCs stimulated with the EC90 of the ligand” value was determined as 0.95 nM in assay [1] and 2.97 nM in assay [2]. The “IC50 (nM), phospho-STAT3 in mouse spleens stimulated with the EC90 of the ligand” value in assay [3] was determined as 0.32 nM; in assay [4], 0.14 nM.

B2: IL27RAm(mFc1) (Fc fusion)
chain: TRPHGSPGPLQCYSVGPLGILNCSWEPLGDLETPPVLYHQSQKYHPNRVWEVKVPSKQSWVTIPREQFTMADKLLIWGTQKGRPLWSSVSVNLETQMKPDTPQIFSQVDISEEATLEATVQWAPPVWPPQKALTCQFRYKECQAEAWTRLEPQLKTDGLTPVEMQNLEPGTCYQVSGRCQVENGYPWGEWSSPLSFQTPFLDPEDVWVSGTVCETSGKRAALLVWKDPRPCVQVTYTVWFGAGDITTTQEEVPCCKSPVPAWMEWAVVSPGNSTSWVPPTNLSLVCLAPESAPCDVGVSSADGSPGIKVTWKQGTRKPLEYVVDWAQDGDSLDKLNWTRLPPGNLSTLLPGEFKGGVPYRITVTAVYSGGLAAAPSVWGFREELVPLAGPAVWRLPDDPPGTPVVAWGEVPRHQLRGQATHYTFCIQSRGLSTVCRNVSSQTQTATLPNLHSGSFKLWVTVSTVAGQGPPGPDLSLHLPDNRIREPRGPTIKPCPPCKCPAPNLLGGPSVFIFPPKIKDVLMISLSPIVTCVVVDVSEDDPDVQISWFVNNVEVHTAQTQTHREDYNSTLRVVSALPIQHQDWMSGKEFKCKVNNKDLPAPIERTISKPKGSVRAPQVYVLPPPEEEMTKKQVTLTCMVTDFMPEDIYVEWTNNGKTELNYKNTEPVLDSDGSYFMYSKLRVEKKNWVERNSYSCSVVHEGLHNHHTTKSFSRTPGK
Consider B2, for which the “IC50 (nM), phospho-STAT3 in total human PBMCs stimulated with the EC90 of the ligand” value worked out at 1370 nM in assay [1] and 4.83 nM in assay [2]. Besides, the “IC50 (nM), phospho-STAT3 in mouse spleens stimulated with the EC90 of the ligand” value in assay [3] came out at 9.3 nM; in assay [4] it was 0.18 nM.
